Assay results as given in PMC9092470, “Understanding p300-transcription factor interactions using sequence variation and hybridization†” (RSC Chemical Biology, 2022).
No end group written: not given here.

Each substance was assayed against GST-p300 (p300 CH1 domain, residues 330–420) (Homo sapiens, UniProt Q09472) (assay: Fluorescence anisotropy direct titration of GFP-HIF-1α776–826 variants with GST-p300). Conditions: 50 nM GFP-HIF-1α776–826 variant, GST-p300 serial dilution, 25 mM Tris–HCl, 150 mM NaCl, 1 mM DTT, pH 7.4, 27 °C, 1:1 model, ± standard error of fitted value, technical triplicates.
Sequence of GST-p300 (p300 CH1 domain, residues 330–420) (Q09472 330-420): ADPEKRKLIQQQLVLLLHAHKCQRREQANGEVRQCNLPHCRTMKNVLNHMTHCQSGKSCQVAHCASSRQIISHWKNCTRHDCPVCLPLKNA
Format: binding
Description: To experimentally compare the predictions, we carried out an in vitro biophysical study of several HIF-1α sequence variants. We assessed predicted hot residues and their interactions with p300 using the NMR structure to visualize the structural basis behind the predictions (See ESI, ^† Fig. S2). These analyses helped refine a first series of alanine variants to prepare. […] HIF-1α776–826 sequence variants were recombinantly prepared based on the predictions to test their binding to the recombinantly prepared p300 (Fig. 2). Given the length of the peptide ([…]), this was considered advantageous as it obviates the need to chemically synthesise, label and purify multiple variants. As the C-TAD domain is unstructured in isolation it was recombinantly expressed as a fusion protein with GFP. The green-fluorescent protein (GFP) tag was used for fluorescence anisotropy (FA) experiments to determine the binding affinity of HIF-1α776–826 C-TAD variants to p300. As the CH1 domain of p300 is a small domain of 11 kDa it was recombinantly expressed as a fusion protein with GST to increase its size and thus the signal to noise in the FA experiments. We established an assay where the interaction between GFP-tagged wt HIF-1α776–826 and GST-tagged p300 was monitored by FA, using the fluorescence of GFP. GST dimerises with single digit nM Kd[61] (and in our hands exists as a dimer in size exclusion chromatography analyses, see ESI, ^† Fig. S15 for protein characterization data), thus two molecules of GFP-HIF-1α could bind to the GST-p300 dimer (Fig. 2a). We make the assumption that each p300 binding site behaves independently and analyse the binding isotherm using a 1 : 1 model.
Fig. 2 Biophysical analyses on the effects of HIF-1α sequence variant p300 binding affinity. (a) schematic depicting the equilibrium for interaction of GFP-HIF-1α776–826 variants and GST-p300 as studied by fluorescence anisotropy; (b) representative fluorescence anisotropy titration data for sAV and mAV GFP-HIF-1α776–826 peptides interacting with GST-p300 (25 mM Tris–HCl, 150 mM NaCl, 1 mM DTT, pH 7.4), error bars represent standard deviation of technical triplicates; (c) raw ITC data (upper) and fitted thermogram (lower) for the interaction of GFP-HIF-1α776–826 peptides with p300 (37 °C in 25 mM Tris–HCl, 150 mM NaCl, 1 mM DTT, pH 7.4) using 10 μM p300 in the cell and 100 μM GFP-HIF-1α776–826 variant in the syringe; error bars represent estimated integration errors (d) thermodynamic signatures for each interaction. […]
7.4 buffer or dialysed into 25 mM Tris, 150 mM NaCl, 1 mM DTT pH 7.4 buffer.
GSTp300 protein was serially diluted in buffer (25 mM Tris-HCl, 150 mM NaCl, 1mM DTT, pH 7.4) and GFP-HIF-1α (50nM final concentration) was added, the plates were read after 0 min, 60 min, 4 h and 24 h, and incubated at room temperature in between. Each experiment was run in triplicate and the fluorescence anisotropy measured using an EnVision 2103 MultiLabel plate reader (Perkin Elmer) with excitation at 480 nm and emission at 535 nm (30 nm bandwidths). The recorded temperature for all measurements was 27°C ± 1°C. In parallel, a control experiment was performed in which no GFP-HIF was added and the volume made up with additional buffer, this blank was deducted from the raw data for each of the three repeats.
The intensity was calculated for each point using eqn (1) and used to calculated anisotropy […]
using eqn (2). From a plot of anisotropy against GST-p300 concentration the minimum and maximum anisotropies were obtained using a logistic sigmoidal fit in OriginPro 8.6. This allowed the conversion to fraction bound (eqn (3)). The data were then fitted using eqn (4) in OriginPro 8.6 to determine the dissociation constant, Kd. […]
5 µl injections and 180 s spacing between injections, for 40 injections. Titrations were performed in 40 mM Na-phosphate, pH 7.5 100 mM NaCl, 1 mM DTT buffer except for GFP- […]

Row | Kd [nM] | Substance
1 | 590 ± 302 | D799A E801A N803A: GFP-HIF-1α776–826 C-TAD multiple alanine variant ({GFP}-SDLACRLLGQSMDESGLPQLTSYACAVAAPIQGSRNLLQGEELLRALDQVN; cysteine pairing not given here)
2 | 114 ± 53 | D799A: GFP-HIF-1α776–826 C-TAD single alanine variant D799A ({GFP}-SDLACRLLGQSMDESGLPQLTSYACEVNAPIQGSRNLLQGEELLRALDQVN; cysteine pairing not given here)
3 | 224 ± 18 | E801A L822A: GFP-HIF-1α776–826 C-TAD multiple alanine variant ({GFP}-SDLACRLLGQSMDESGLPQLTSYDCAVNAPIQGSRNLLQGEELLRAADQVN; cysteine pairing not given here)
4 | 128 ± 11 | E817A: GFP-HIF-1α776–826 C-TAD single alanine variant E817A ({GFP}-SDLACRLLGQSMDESGLPQLTSYDCEVNAPIQGSRNLLQGEALLRALDQVN; cysteine pairing not given here)
5 | 153 ± 19 | L795A D799A L818A L822A V825A: GFP-HIF-1α776–826 C-TAD multiple alanine variant ({GFP}-SDLACRLLGQSMDESGLPQATSYACEVNAPIQGSRNLLQGEEALRAADQAN; cysteine pairing not given here)
6 | 174 ± 45 | L795A D799A L822A: GFP-HIF-1α776–826 C-TAD multiple alanine variant ({GFP}-SDLACRLLGQSMDESGLPQATSYACEVNAPIQGSRNLLQGEELLRAADQVN; cysteine pairing not given here)
7 | 255 ± 44 | L795A D799A: GFP-HIF-1α776–826 C-TAD multiple alanine variant ({GFP}-SDLACRLLGQSMDESGLPQATSYACEVNAPIQGSRNLLQGEELLRALDQVN; cysteine pairing not given here)
8 | 118 ± 19 | L795A: GFP-HIF-1α776–826 C-TAD single alanine variant L795A ({GFP}-SDLACRLLGQSMDESGLPQATSYDCEVNAPIQGSRNLLQGEELLRALDQVN; cysteine pairing not given here)
9 | 247 ± 75 | L818A L822A D823A: GFP-HIF-1α776–826 C-TAD multiple alanine variant ({GFP}-SDLACRLLGQSMDESGLPQLTSYDCEVNAPIQGSRNLLQGEEALRAAAQVN; cysteine pairing not given here)
10 | 54 ± 33 | L818A L822A V825A: GFP-HIF-1α776–826 C-TAD multiple alanine variant ({GFP}-SDLACRLLGQSMDESGLPQLTSYDCEVNAPIQGSRNLLQGEEALRAADQAN; cysteine pairing not given here)
11 | 126 ± 33 | L818A L822A: GFP-HIF-1α776–826 C-TAD multiple alanine variant ({GFP}-SDLACRLLGQSMDESGLPQLTSYDCEVNAPIQGSRNLLQGEEALRAADQVN; cysteine pairing not given here)
12 | 237 ± 40 | L818A: GFP-HIF-1α776–826 C-TAD single alanine variant L818A ({GFP}-SDLACRLLGQSMDESGLPQLTSYDCEVNAPIQGSRNLLQGEEALRALDQVN; cysteine pairing not given here)
13 | 109 ± 66 | L822A: GFP-HIF-1α776–826 C-TAD single alanine variant L822A ({GFP}-SDLACRLLGQSMDESGLPQLTSYDCEVNAPIQGSRNLLQGEELLRAADQVN; cysteine pairing not given here)
14 | 120 ± 17 | N803A: GFP-HIF-1α776–826 C-TAD single alanine variant N803A ({GFP}-SDLACRLLGQSMDESGLPQLTSYDCEVAAPIQGSRNLLQGEELLRALDQVN; cysteine pairing not given here)
15 | 31 ± 8 | Q824A: GFP-HIF-1α776–826 C-TAD single alanine variant Q824A ({GFP}-SDLACRLLGQSMDESGLPQLTSYDCEVNAPIQGSRNLLQGEELLRALDAVN; cysteine pairing not given here)
16 | 37 ± 16 | S797A: GFP-HIF-1α776–826 C-TAD single alanine variant S797A ({GFP}-SDLACRLLGQSMDESGLPQLTAYDCEVNAPIQGSRNLLQGEELLRALDQVN; cysteine pairing not given here)
17 | 198 ± 37 | V825A: GFP-HIF-1α776–826 C-TAD single alanine variant V825A ({GFP}-SDLACRLLGQSMDESGLPQLTSYDCEVNAPIQGSRNLLQGEELLRALDQAN; cysteine pairing not given here)

Each substance was assayed against GST-tagged p300 CH1 domain (residues 330–420) (UniProt Q09472) (assay: fluorescence polarisation; fluorescence anisotropy by the fluorescence of GFP; GFP-HIF-1α 776–826 variants with GST-p300; 25 mM Tris–HCl, 150 mM NaCl, 1 mM DTT, pH 7.4; 1:1 model, each p300 site of the GST dimer taken as independent). Conditions: not given.

Row | Kd [nM] | Substance
18 | 114 | GFP-HIF-1α 776–826 D799A (from UniProt Q16665 776-826) (domain or fragment)
19 | 590 | GFP-HIF-1α 776–826 D799A E801A N803A (from UniProt Q16665 776-826) (domain or fragment)
20 | 224 | GFP-HIF-1α 776–826 E801A L822A (from UniProt Q16665 776-826) (domain or fragment)
21 | 128 | GFP-HIF-1α 776–826 E817A (from UniProt Q16665 776-826) (domain or fragment)
22 | 118 | GFP-HIF-1α 776–826 L795A (from UniProt Q16665 776-826) (domain or fragment)
23 | 255 | GFP-HIF-1α 776–826 L795A D799A (from UniProt Q16665 776-826) (domain or fragment)
24 | 153 | GFP-HIF-1α 776–826 L795A D799A L818A L822A V825A (from UniProt Q16665 776-826) (domain or fragment)
25 | 174 | GFP-HIF-1α 776–826 L795A D799A L822A (from UniProt Q16665 776-826) (domain or fragment)
26 | 237 | GFP-HIF-1α 776–826 L818A (from UniProt Q16665 776-826) (domain or fragment)
27 | 126 | GFP-HIF-1α 776–826 L818A L822A (from UniProt Q16665 776-826) (domain or fragment)
28 | 247 | GFP-HIF-1α 776–826 L818A L822A D823A (from UniProt Q16665 776-826) (domain or fragment)
29 | 54 | GFP-HIF-1α 776–826 L818A L822A V825A (from UniProt Q16665 776-826) (domain or fragment)
30 | 109 | GFP-HIF-1α 776–826 L822A (from UniProt Q16665 776-826) (domain or fragment)
31 | 120 | GFP-HIF-1α 776–826 N803A (from UniProt Q16665 776-826) (domain or fragment)
32 | 31 | GFP-HIF-1α 776–826 Q824A (from UniProt Q16665 776-826) (domain or fragment)
33 | 37 | GFP-HIF-1α 776–826 S797A (from UniProt Q16665 776-826) (domain or fragment)
34 | 198 | GFP-HIF-1α 776–826 V825A (from UniProt Q16665 776-826) (domain or fragment)
